Data set [1] deals with Hydroxyproline 2-epimerase from Azospirillum brasilense (Azospirillum brasilense ATCC 29145). In words: SEC; analytic gel filtration by HPLC on TSKgel G3000SWXL, 50 mM Tris-HCl pH 8.0, 1 ml/min, high molecular weight calibration kit; data not shown.
The target of data set [2] is ProR-like protein from Haloarcula japonica (Haloarcula japonica DSM 6131). The data set is described as above.
The target of data set [3] is ProR-like protein from Ferroplasma acidiphilum (Ferroplasma acidiphilum DSM 12658). Described as above.
Data set [4] concerns the target T1, TlProR (bifunctional proline racemase/hydroxyproline epimerase) (Thermococcus litoralis, UniProt H3ZMH5).
T1 construct: gene OCC_00372
T1 sequence (H3ZMH5 1-331): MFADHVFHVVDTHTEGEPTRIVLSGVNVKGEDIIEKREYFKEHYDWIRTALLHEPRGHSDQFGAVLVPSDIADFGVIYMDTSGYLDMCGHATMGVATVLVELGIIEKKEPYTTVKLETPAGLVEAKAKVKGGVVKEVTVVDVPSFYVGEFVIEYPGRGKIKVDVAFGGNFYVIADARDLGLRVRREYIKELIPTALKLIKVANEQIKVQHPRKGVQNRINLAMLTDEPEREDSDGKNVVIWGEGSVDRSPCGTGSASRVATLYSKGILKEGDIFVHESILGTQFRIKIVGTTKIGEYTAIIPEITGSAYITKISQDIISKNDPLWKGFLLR
Briefly: HPLC racemase assay with L-proline, chiral separation. In kind it is biochemical.

For another data set, the target named is T2, HjProR (Haloarcula japonica, UniProt M0LMI3).
T2 construct: gene C444_02196; full length, N-terminal His6 tag kept (pETDuet-1), E. coli; dimer; possible partial proteolysis
T2 sequence (M0LMI3 entry or part of it): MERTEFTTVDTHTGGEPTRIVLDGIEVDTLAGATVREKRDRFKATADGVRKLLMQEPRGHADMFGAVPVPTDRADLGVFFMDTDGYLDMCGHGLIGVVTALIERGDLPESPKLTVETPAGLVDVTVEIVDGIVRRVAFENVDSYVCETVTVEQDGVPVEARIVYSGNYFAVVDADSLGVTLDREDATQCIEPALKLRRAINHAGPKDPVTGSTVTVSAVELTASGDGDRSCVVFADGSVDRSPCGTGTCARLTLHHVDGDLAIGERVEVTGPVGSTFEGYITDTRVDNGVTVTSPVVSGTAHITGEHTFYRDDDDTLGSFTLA
Briefly: chiral HPLC of NBD-F derivatives, racemase activity. In kind it is biochemical.

Data set [5] addresses ProR-like protein (OCC_00372) from Thermococcus litoralis, bifunctional proline racemase/hydroxyproline epimerase (Thermococcus litoralis DSM 5473). In words: SEC; analytic gel filtration by HPLC on TSKgel G3000SWXL, 50 mM Tris-HCl pH 8.0, 1 ml/min, high molecular weight calibration kit; data not shown. A general note: SEC sorts molecules by how far they enter the pores of the column.

Data set [6] deals with the molecule itself. The data set is described as above.
Substrate in data set [7]: O=C(O)[C@H]1CCCN1
In words: purified protein.

Substrate in data set [8]: O=C(O)[C@@H]1CCCN1
Briefly: purified protein.

Substrate in data set [9]: O=C(O)[C@@H]1C[C@@H](O)CN1
In words: purified protein.

Substrate in data set [10]: O=C(O)[C@H]1NCC[C@@H]1O
In words: purified protein.

Substrate in data set [11]: O=C(O)[C@H]1C[C@@H](O)CN1
Briefly: purified protein.

In data set [1], “Hydroxyproline 2-epimerase from Azospirillum brasilense (enzyme)” returned a stoichiometry N of 2.

As for “ProR-like protein from Haloarcula japonica (enzyme)”, the stoichiometry N in data set [2] is 2.

In data set [3], “ProR-like protein from Ferroplasma acidiphilum (enzyme)” showed a stoichiometry N of 2.

In [4], `O=C(O)c1ccc[nH]1` [PYC, pyrrole-2-carboxylate] showed an IC50 of 217 µM.

Take `O=C(O)c1ccc[nH]1` [pyrrole-2-carboxylate]: the midpoint of inhibition on HjProR, the IC50, lay at 295 µM.

In data set [5], “ProR-like protein (OCC_00372) from Thermococcus litoralis, bifunctional proline racemase/hydroxyproline epimerase (enzyme)” had a stoichiometry N of 2.

B1: Proline racemase from Clostridium difficile (enzyme, Clostridium difficile 630, UniProt Q17ZY4 1-335, looked up)
chain: MKFSRSIQAIDSHTAGEATRIVVGGIPNIKGNSMPEKKEYLEENLDYLRTAIMLEPRGHNDMFGSVMTQPCCPDADFGIIFMDGGGYLNMCGHGTIGAMTAAIETGVVPAVEPVTHVVMEAPAGIIRGDVTVVDGKAKEVSFLNVPAFLYKEGVEVDLPGVGTVKFDISFGGSFFAIIHASQLGLKIEPQNAGKLTELAMKLRDIINEKIEIQHPTLAHIKTVDLVEIYDEPTHPEATYKNVVIFGQGQVDRSPCGTGTSAKLATLHAKGELKVGEKFVYESILGTLFKGEIVEETKVADFNAVVPKITGSAYITGFNHFVIDEEDPLKHGFILK
notes: Proline racemase CdProR of Clostridium difficile 630, gene CD630_32370 amplified from genomic DNA into pETDuet-1; calculated mass with His6-tag 37.7 kDa; also called CdProR; source: E. coli BL21-CodonPlus(DE3)-RIL, purified (Ni-NTA); not shown: His6, N-terminal, kept
Take B1: the “stoichiometry N” value in data set [6] turned out to be 2.

B2: TlProR (bifunctional proline racemase/hydroxyproline epimerase) (Thermococcus litoralis DSM 5473) (protein)
chain: MFADHVFHVVDTHTEGEPTRIVLSGVNVKGEDIIEKREYFKEHYDWIRTALLHEPRGHSDQFGAVLVPSDIADFGVIYMDTSGYLDMCGHATMGVATVLVELGIIEKKEPYTTVKLETPAGLVEAKAKVKGGVVKEVTVVDVPSFYVGEFVIEYPGRGKIKVDVAFGGNFYVIADARDLGLRVRREYIKELIPTALKLIKVANEQIKVQHPRKGVQNRINLAMLTDEPEREDSDGKNVVIWGEGSVDRSPCGTGSASRVATLYSKGILKEGDIFVHESILGTQFRIKIVGTTKIGEYTAIIPEITGSAYITKISQDIISKNDPLWKGFLLR
As to B2, the Km in “purified protein [7]” is 91.9 µM; in the data set “purified protein [8]”, 1210 µM; in the data set “purified protein [9]” it was 6080 µM; in “purified protein [10]”, 502 µM; in “purified protein [11]” it was 6650 µM. Also, the kcat in “purified protein [7]” is 2.22 s⁻¹; in “purified protein [8]” it was 2.78 s⁻¹; in the data set “purified protein [9]”, 12.1 s⁻¹; in the data set “purified protein [10]”, 3.6 s⁻¹; in “purified protein [11]”, 3.83 s⁻¹. The kcat/Km in “purified protein [7]” was 26200 M⁻¹ s⁻¹; in the data set “purified protein [8]”, 2300 M⁻¹ s⁻¹; in the data set “purified protein [9]” it was 2030 M⁻¹ s⁻¹; in “purified protein [10]”, 7170 M⁻¹ s⁻¹; in the data set “purified protein [11]”, 580 M⁻¹ s⁻¹.

As usually defined, the stoichiometry N is a count of units in the complex or per binding partner. Usually IC50 stands for the concentration at which inhibition is half-maximal. Lower therefore signals inhibition by little substance. In general, Km refers to the concentration of substrate that gives half-maximal velocity. The kcat is the maximal rate divided by the concentration of active sites. A word on the kcat/Km: it is the second-order rate constant that governs catalysis at low substrate concentration.

The values above are taken from PMC4364671, “Identification and Characterization of Bifunctional Proline Racemase/Hydroxyproline Epimerase from Archaea: Discrimination of Substrates and Molecular Evolution” (PLoS ONE, 2015).
